In patent US11312781B2, “Antigen binding molecules that bind LIGHT” (Capella Bioscience Ltd., priority 2018, dated 2022):

Assays:
[1] = target: T1, soluble LIGHT amino acids 64-240 (Homo sapiens, UniProt O43557); assay: BIAcore (SPR) binding to soluble LIGHT 64-240
T1 construct: 64-240 LIGHT (Abcam, ab82123); purchased Abcam ab82123
Protocol: (§1) Real-time binding interactions between captured antibody (chimeric anti-membrane LIGHT monoclonal antibody) captured on a biosensor matrix via goat anti-human Fc IgG and recombinant soluble LIGHT were measured by surface plasmon resonance (SPR) using the BIAcore system (GE Healthcare) according to manufacturer's instructions and standard procedures. Briefly, soluble LIGHT was diluted in HBS running buffer (GE Healthcare) and aliquots were injected through the immobilized protein matrices at a flow rate of […]. BIAevaluation software was used to calculate association rate (ka), dissociation rate (kd) and affinity (KD).
(§2) The specificity of two lead anti-membrane LIGHT mAbs to soluble LIGHT was determined by BIAcore analysis and compared to the KD calculated from the EC50 values in Table 7 (results in Table 9). In brief, mAbs 3D12, 3B04 were compared to a mAb that binds both soluble and membrane LIGHT, F19, (F19 IgG4 mAb from EP2292663). An irrelevant anti-HEL mAb, 2A11, was used as a negative control. The mAbs were captured on an anti-human Fc mAb coated chip and soluble LIGHT was passed over the surface and the kinetic parameters were calculated using BIAcore 3000 software. The soluble LIGHT preparations used were amino acids 74-240 LIGHT (R&D Systems, 664-LI-025) and 64-240 LIGHT (Abcam, ab82123).

[2] = target: T2, soluble LIGHT amino acids 74-240 (Homo sapiens, UniProt O43557, K214E); assay: BIAcore (SPR) binding to soluble LIGHT 74-240
T2 construct: amino acids 74-240 LIGHT (R&D Systems, 664-LI-025); purchased R&D Systems 664-LI-025
T2 sequence (O43557 74-240 K214E): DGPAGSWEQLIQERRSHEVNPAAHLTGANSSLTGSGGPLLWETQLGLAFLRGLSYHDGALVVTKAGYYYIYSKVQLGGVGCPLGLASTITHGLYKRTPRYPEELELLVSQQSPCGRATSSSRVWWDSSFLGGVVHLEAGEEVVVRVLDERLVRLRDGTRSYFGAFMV
Protocol: as §1, §2

[3] = test system: wild type and mutated membrane LIGHT; assay: Alanine scanning mutagenesis of membrane LIGHT and flow cytometry (HEK293FF cells); format: binding, human; conditions: single substitutions F57A to E86A and four amino acid substitutions 60-63 to 96-99
Text: The full length LIGHT gene was synthesized by GeneArt (ThermoFisher Scientific) and cloned into the mammalian expression vector pcDNA 3.1(+). The following Ala mutations were introduced into the LIGHT gene: 30 single amino acid alanine substitutions from F57A to E86A; 2 single amino acid alanine substitutions; G188A, R189A; one serine substitution, A190S; 17 single amino acid alanine substitutions; T191A to V207A and 10 four amino acid alanine substitutions, 60-63, 64-67, 68-71, 72-75, 76-79, 80-83, 84-87, 88-91, 92-95 and 96-99. Constructs were reconstituted according to manufacture instructions, using DEPC-treated and sterile filtered water. Competent TOP10 E. coli cells were transformed with 100 ng of each construct and a single colony from each construct was picked and used to inoculate 10 ml of LB/carb100/glu2% medium and grown overnight at 37° C., 200 rpm. The extraction of the construct DNA was performed using the Qiagen QIAprep Spin Miniprep Kit (250) and the concentration was determined by measuring the O.D. at 260 nm in a spectrophotometer.
HEK293FF cells were cultured in Freestyle™293 expression medium (ThermoFisher scientific cat. no. 12338018) supplemented with 2 mM L-Glutamine. The day of transfection the cells were seeded in a 24-well plate at 0.6×10^6 cells/well. Lipofectamine 2000 (ThermoFisher scientific), 3 μl, was mixed with 50 μl OptiMEM medium (GIBCO) and then added to 50 μl Opti-MEM medium containing 3 ug plasmid DNA and incubated for 20 min at RT to form DNA-Lipofectamine 2000 complexes which were then added to the HEK293FF cells and incubated at 37° C., 5% CO2 for 24 hours. For each construct, in duplicate, 0.60×10^6 cells/well were used in a 96 well round bottom plate. Cells were centrifuged for 3 minutes at 300×g at 4° C., the supernatant discarded and the cells washed with 150 μl FACS buffer (0.5% FBS in phosphate buffered saline). This process was repeated 3 times. For each construct, […] cells/well were incubated with anti-LIGHT antibodies at the EC50 concentration and with positive controls of anti-LIGHT mAb MAB664 (R&D Systems), mAb F19 (EP2292663) or LTBR-Fc (R&D Systems), in a final volume of 50 μl/well for 30 min at 4° C., with shaking. The wells were washed 3 times as above and 50 μl/well of goat anti-human IgG FITC (1:1500 dilution in FACS buffer, SIGMA F9512-2ML) or goat anti-mouse APC (1/500 dilution in FACS buffer, BDBioscience 550826), as appropriate, was added to the wells and incubated for 30 min at 4° C. protected from the light, with shaking. The cells were then washed as above, resuspended in 100 μl of FACS buffer and binding of the antibodies to the constructs was measured using flow cytometry and a total of 10,000 cells were acquired for each sample. Controls of buffer and secondary antibody only as well as HEK293FF non transfected cells were also used.
All of the mAbs of this invention show a similar profile in that their epitope is located at amino acids 188-197 of LIGHT. […] The epitope of the mAbs of this invention defined by alanine scanning mutagenesis are residues 188-197 of LIGHT. This is visually depicted in FIG. 8 utilising a 3D visualisation of the LIGHT trimer from the crystal structure of LIGHT from Liu et al. (Structure 22: 1252-62; 2014). This would result in the mAbs binding to the “tip” of the LIGHT trimer and explaining the 1:1 binding. The impact of this epitope would result in […] less dosing of mAb 3B04 being required to neutralise membrane LIGHT compared to, for example, mAbs F19 and F23 (of EP2292663) which bind both soluble and membrane LIGHT equally and bind LIGHT in the ratio 3:1.

T1 sequence (O43557 64-240): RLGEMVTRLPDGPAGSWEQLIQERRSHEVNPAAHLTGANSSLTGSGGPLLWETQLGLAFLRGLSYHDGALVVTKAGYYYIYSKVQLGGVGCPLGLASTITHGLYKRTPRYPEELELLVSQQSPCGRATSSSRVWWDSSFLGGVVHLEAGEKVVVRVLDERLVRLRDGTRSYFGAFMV

B1: 3B04: parental mouse anti-membrane LIGHT antibody, VL SEQ ID NO 1, VH SEQ ID NO 5; tested as chimeric human IgG4 mAb (antibody, listed as Homo sapiens, V domains shown)
VH: QVQLQQPGAELVRPGASVTLSCKASGYTFTDYEMHWVKQTPVHGLEWIGEIDPETGDTAYSQKFKGKATLTADKSSSTAYMEFRSLTSEDSAVYYCSRETDYFFDYWGQGTTLTVSS
VL: DIQMTQTPASLSASVGETVTITCGASENIYGALNWYQRKQGKSPQLLIYGATNLADGMSSRFSGSGSGRQYSLKISSLHPDDFATYYCQNVLTTPWTFGGGTKLEIKR
- 64-240 LIGHT Ka [1]: 251000 M⁻¹ s⁻¹
- 64-240 LIGHT Kd [1]: 0.00345 s⁻¹
- 74-240 LIGHT Ka [2]: 222000 M⁻¹ s⁻¹
- 74-240 LIGHT Kd [2]: 0.00348 s⁻¹
- Binding to LIGHT alanine substitution constructs versus WT LIGHT [3]: no difference in binding

B2: 3D12: parental mouse anti-membrane LIGHT antibody, VL SEQ ID NO 41, VH SEQ ID NO 45; tested as chimeric human IgG4 mAb (antibody, listed as Homo sapiens, V domains shown)
VH: QVQLQQPGAELVRPGASVTLSCKASDYTFTDSEIHWVKQTPVHGLEWIGEIDPETGGTAYNQKFKGKATLTADKSSSTAYMELRSLTSEDSAVYYCSRETDYFFDYWGQGTTLTVSS
VL: DIQMTQSPASLSASVGETVTITCGASENIYGALNWYQRKQGKSPQLLIYGATNLADGMSSRFSGSGSGRQYSLKISSLHPDDVATYYCQNVLSTPWTFGGGTKLEIKR
- 64-240 LIGHT Ka [1]: 219000 M⁻¹ s⁻¹
- 64-240 LIGHT Kd [1]: 0.00234 s⁻¹
- 74-240 LIGHT Ka [2]: 168000 M⁻¹ s⁻¹
- Binding to LIGHT alanine substitution constructs versus WT LIGHT [3]: no difference in binding
